This is an account of results in patent publication US10844127.

The target of one assay is HER3 ECD R426A (human) (UniProt P21860). The assay is described as follows: FACS, HER3 ECD alanine mutants on cells. A general note: Flow cytometry measures light scatter and fluorescence of single cells or particles in a stream.
A further assay concerns the target HER3 ECD F409A (human) (UniProt P21860). The experiment in a line: FACS, HER3 ECD alanine mutants on cells.

Sequence of HER3 ECD F409A (human) (P21860 20-643 F409A): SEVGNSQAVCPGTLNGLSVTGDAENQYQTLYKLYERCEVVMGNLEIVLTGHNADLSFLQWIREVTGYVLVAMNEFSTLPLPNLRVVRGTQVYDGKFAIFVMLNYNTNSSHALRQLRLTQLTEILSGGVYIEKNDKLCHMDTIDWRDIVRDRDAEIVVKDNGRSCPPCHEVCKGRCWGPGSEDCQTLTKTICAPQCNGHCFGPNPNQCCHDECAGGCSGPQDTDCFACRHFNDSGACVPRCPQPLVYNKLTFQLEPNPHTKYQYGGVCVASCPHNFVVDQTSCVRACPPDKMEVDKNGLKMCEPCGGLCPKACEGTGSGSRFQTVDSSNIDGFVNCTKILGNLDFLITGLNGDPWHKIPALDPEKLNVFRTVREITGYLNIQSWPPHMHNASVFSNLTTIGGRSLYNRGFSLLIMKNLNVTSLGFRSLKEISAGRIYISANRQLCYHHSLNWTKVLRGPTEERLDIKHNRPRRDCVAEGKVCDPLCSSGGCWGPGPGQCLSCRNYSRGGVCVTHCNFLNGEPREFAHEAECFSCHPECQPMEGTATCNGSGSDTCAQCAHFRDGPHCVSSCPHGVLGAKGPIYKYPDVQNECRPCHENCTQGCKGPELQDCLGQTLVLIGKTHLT
Sequence of HER3 ECD R426A (human) (P21860 20-643 R426A): as the sequence (P21860 20-643 F409A) above, with A390F, R407A counted along it

Regarding control mAb 66223 (antibody), the Control mAb binding % of wt binding (% of wt binding) amounted to 93.1 in the assay with HER3 ECD R426A (human) and 79.6 in the assay with HER3 ECD F409A (human).
